Source: the nanobody polyreactivity screen of Harvey et al. (2022)

test: yeast display, Sf9 membrane polyspecificity reagent, FACS + sequencing; frameworks hold sequencing errors
Method in brief: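 Galactose-induced (36–48 hours) yeast carrying a synthetic nanobody display library were exposed to 10% biotinylated, detergent-solubilized Sf9 membrane reagent at 4 °C for 1 hour. FACS followed streptavidin microbead enrichment, using low and high (top ~1%) gates for expression (anti-HA) and reagent binding (streptavidin). Colony PCR, MiSeq 2 × 250 sequencing and CDR-length filtering followed. Labels for polyreactivity reflect the gate of origin.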

Row | Sequence | polyreactivity (PSR sort gate)
1 | QVQLVESGGGLVQAGGSLRLSCAASGSIYLYNAMGWYRQAPGKERELVAVINGRGGTYYADSVKGRFTISRDNAKNNVYLQMNSLKPEDTAVYYCATGYAPSAWYDSVRFEDRDSWGQGTQVTVSS | low polyreactivity
2 | QVQLVESGGGLVQAGGSLRLSCAASGSIYRNNAMGWYRQAPGKERELVAVISRRAGNTYYAVSVKGRFTISRDNAKNTVYLQMNSLKPEDTAVYYCAADYSKSSIRGDYWGQGTQVTVSS | low polyreactivity
3 | QVQLVESGGGLVQAGGSLRLSCAASGSIYRYAMGWYRQAPGKERELVASISRRGGSTYYADSVKGRFTISRDNAKNTVYLQMNSLKPEDTAVYSCNAYGYSFGYDYWGQGTQVTVSS | high polyreactivity
4 | QVQLVESGGGLVQAGGSLRLSCAASGSIYSYTMGWYRQAPGKEKELVAAITYSGDSTYYADSVKGRFTISRDNAKNTVYLQMNSLKPDDTAVYYCAKSGTLSEYDYWGQGTQVTVSS | low polyreactivity
5 | QVQLVESGGGLVQAGGSLRLSCAASGSIYSYTMGWYRQAPGKEREFVAAITYSGDSTYYADSVKGRFTISRDNEKNTVYLQMNSLTPEDTAVYDCAAAGGRGSYYRLDYWGQGTQVTVSS | low polyreactivity
6 | QVQLVESGGGLVQAGGSLRLSCAASGSIYTPNVMGWYRQAPGKERELVAAISQSGGSTFYADSVKGRFTISRDNAKNTVYLQMNSLKPEDTAVYYCATEYYGPVYDLDYDYWGQGTQVTVSS | low polyreactivity
7 | QVQLVESGGGLVQAGGSLRLSCAASGSIYYGYAMGWYRQAPGKERELVAAISSSGGSTYYADSVKGRFTISRDNAKNTVYLQMNSLKPEDTAVYYCAATRRKAYLYPSDYWGQGTQVTVSS | high polyreactivity
8 | QVQLVESGGGLVQAGGSLRLSCAASGSIYYHNAMGWYRQAPGKERELVAAITGSGGSTYYADSVKGRFTISRDNAKNTVYLQMNSLKPEDTAVYYCAADGYTKWWISWGYDYWGQGTQVTVSS | low polyreactivity
9 | QVQLVESGGGLVQAGGSLRLSCAASGSIYYNAMGWYRQAPGKERELVASISTGDSTDYADSVKGRFTISRDNAKNTVYLQMNSLKPEDTAVYYCAAVTRLGYWDDYWGQGTQVTVSS | low polyreactivity
10 | QVQLVESGGGLVQAGGSLRLSCAASGSIYYYAMGWYRQAPGKERELVAVITSRGGSTNYADSVKGRFTISRDNAKNTVYLQMNSLKPQDTAVYYCNADYYRYYSITYGGDYWGQGTQVTVSS | high polyreactivity
11 | QVQLVESGGGLVQAGGSLRLSCAASGSLFDHYAMGWYRQEPGTERELVARISWSGGSTYYADSVKGRFTISRDNAKNTVYLQMNRLKPEDTAVYYCARAGRSWDTLYKYYLEHDYWGQGTQVTVSS | low polyreactivity
12 | QVQLVESGGGLVQAGGSLRLSCAASGSLYFAYAMGWYRQAPGKEREFVAAISASGGSTSYADSVKGRFTISRDNAKNTVYLQMNSLKPEDTAVYYCATEHRVTTYDYWGQGTQVTVSS | low polyreactivity
13 | QVQLVESGGGLVQAGGSLRLSCAASGSMFEGYAMGRYLQAPGKVRELVAAMTWSSGSTYYADSVKGRFTISRDNAKNTVYLQMNSLKPEETAVYSCAVDGGDFSSYGYWGQGTQVTVSS | low polyreactivity
14 | QVQLVESGGGLVQAGGSLRLSCAASGSMFKNNAMGWYRQAPGKARELVAAISRSGGSTYYADSVKGRFTISRDNAKNTVYLPMNSLKPEDTAVYYCARDVDTHYPYAYDYWGQGTQVTVSS | high polyreactivity
15 | QVQLVESGGGLVQAGGSLRLSCAASGSNFAINAMGWYRQAPGKERELVAAITRTASTYADSVKGRFTISRDNAKNTVYLQMNSLKPEDTAVYYCNADFAYRYYYWGQGTQVTVSS | low polyreactivity
16 | QVQLVESGGGLVQAGGSLRLSCAASGSNFARYAMGWYRQAPGKERELVAAINSTVSTNYADSVNGRFTISRDNPKNTVYLQMNSLKPEDTAVYYCAVDIVRGGRDSWGQGTQVTVSS | low polyreactivity
17 | QVQLVESGGGLVQAGGSLRLSCAASGSNFDDNAMGWYRQAPGKERELVAAINSTDITNYADSVKGRFTISRDNAKNTVYLQMTSLKPEDTAVYYCNVDDWGQGTQVTVSS | low polyreactivity
18 | QVQLVESGGGLVQAGGSLRLSCAASGSNFDDYGMGWYRQAPGKEREFVATITFGGGTYADSVKGRFTISRDNAKNTVYLQMTSLKPEDTAVYYCAKDWWTYRSSRPSDGTPARDDYWGQGTQVTVSS | low polyreactivity
19 | QVQLVESGGGLVQAGGSLRLSCAASGSNFDYYAMGWYRQAPGKERELVAAIRVSGGSTYYADSVKGRFTISRDNAKNTVYLQMNSLKPEDTAVCYCASSYYDFNYEYYYWGQGTQVTVSS | high polyreactivity
20 | QVQLVESGGGLVQAGGSLRLSCAASGSNFGANAMGWYRQAPGKEREFVAAISGSGTTTYYADSVKGRFTISRDNAKNTVYLQMNSLKPEDTAVYYCAKTRKAHWLGYWGQGTQVTVSS | low polyreactivity
21 | QVQLVESGGGLVQAGGSLRLSCAASGSNFGWYTMGWYRQAPGKERELVAAITSRGTRTSYADSVKGRFTISRDYAKNTVYLQMNSLKPEDTAVYYCAARVFRGLGEYYWGQGTQVTVSS | high polyreactivity
22 | QVQLVESGGGLVQAGGSLRLSCAASGSNFHLYAMGWYRQAPGKERELVADIDLSGGSTYYADSVKGRFTISRDNAKNTVYLQMNSLKPEDTAVYYCGADHVSSLGFDYWGQGTEVTVSS | low polyreactivity

Row | Sequence | polyreactivity (PSR sort gate)
23 | QVQLVESGGGLVQAGGSLRLSCAASGSNFNPYDLGWYRQAPGKERELVAAIDWSGGSTYYADSVKGRFTISRDNAKNTVYLQMNSLKPEDTAVYYCNAESYQDTLFGADNDYDYWGQGTLVTVSS | low polyreactivity
24 | QVQLVESGGGLVQAGGSLRLSCAASGSNFPWNAKGWYRQAPGKERELVAGINESGGSTYYADSVKGRFTISRDYAKNTVYLQMNSLKPEDTAVYYCAADGYPSVGDDYWGQGTQVTVSS | low polyreactivity
25 | QVQLVESGGGLVQAGGSLRLSCAASGSNFRTYPIGWYRQAPGKERELVAAISSNGGSTYYADSVKGRFTISRDNAKNTVYLQMNSLKPEDTAVYYCANDQTGYWYNRYGYWGQGTQVTVSS | low polyreactivity
26 | QVQLVESGGGLVQAGGSLRLSCAASGSNFRYNAIGWYRQAPGKERELVAAISWSGGSTYYADSVKGRFTISRDNAKNTVYLQMNSLKPEDTAVYYCATRYYGIVPGRRYGYWGQGTQVTVSS | low polyreactivity
27 | QVQLVESGGGLVQAGGSLRLSCAASGSNFSDNAMGWYRQAPRKERELVAAITSGGSTYYADSVKGRFTISRDKAKNTVYLQMNSLKPEDSAVYYCAADYWGQGTQVTVSS | low polyreactivity
28 | QVQLVESGGGLVQAGGSLRLSCAASGSNFSFYAMGWYRQAPGKERELVAAISWSGGTTYYADSVKGRFTISRDNAKNTVYLQMNSLKPEDTAVYYCAASEYDGYGGYYWGQGSQVTVSS | low polyreactivity
29 | QVQLVESGGGLVQAGGSLRLSCAASGSNFTPYAMGWYRQAPGKERELVAAISGSGGSTRYADSVKARYTISRDNAKNTVYLQMNSLKPEDTAVYYCAADRYTYIWYHIYDYWGQGTQVTVSS | low polyreactivity
30 | QVQLVESGGGLVQAGGSLRLSCAASGSNFVGNAMGWYRQAPGKERELFAAISSGGSTYYADSVKGRFTISRDNAKNTVYLQLNSLKPEDTAVYYCAAYYVRRYSSRPKDDYWGQGTQVTVSS | low polyreactivity
31 | QVQLVESGGGLVQAGGSLRLSCAASGSNFVWYVMGWYRQAPGKDRELVAAITWSAARTYYADSVKGRFTISRDNAKNTVYLQMNSLKPEDTAVYYCAADGYPLQLYNYWGQGTQVTVSS | low polyreactivity
32 | QVQLVESGGGLVQAGGSLRLSCAASGSNFYFYAMGWYRQAPGKERELVAGITSSGASTYADSVKGRFTISRDNEKNTVYLQMNSLKPEDTAVYYCAAYYPLRKGYGYWGQGTQVTVSS | high polyreactivity
33 | QVQLVESGGGLVQAGGSLRLSCAASGSNIYPNAMGWYRQEPGKEREFVAVISSGGSTYYADSVKGRFTISRDNAKNTVYLQMNSMKPEDTAVYYCAADRGTVSFLYSPRAVDYWGQGTQVTVSS | low polyreactivity
34 | QVQLVESGGGLVQAGGSLRLSCAASGSNLDYNAMGWSRQAPGKERELVAAISTGGRTNYADSVKGRFTISRDNAKNTVYLQMNSLKPDDTAVYYCAADTTTEITDTDYDYWGQGTQVTVSS | low polyreactivity
35 | QVQLVESGGGLVQAGGSLRLSCAASGSNLLRYAMGWYRQAPGKERELVAAIRTIGASTNYADSVKGRYTISRDNAKNTVYLLMNSMKPEDTAVYYCNSYLAEVLPVGKGRLYDYWGQGTQVTVSS | low polyreactivity
36 | QVQLVESGGGLVQAGGSLRLSCAASGSNLVTNSMGWYRQAPGKERELVATITSSGTSTYYADSVKGRFTISRDNAKNTVYLQMNSLKPEDTAVYYCNADDQFAYVVYLWEYHIVQYDYWGQGTQVTVSS | high polyreactivity
37 | QVQLVESGGGLVQAGGSLRLSCAASGSNSGYYVMGWYRQAPGKERELVAAITWRGGSTYYADSVKGRFTISRDNAKNTVYLQMNSLKPEDTAVYYCARSRYLWYTVPPKYGYWGQGTQVTVSS | high polyreactivity
38 | QVQLVESGGGLVQAGGSLRLSCAASGSNVHYMGGERQAPGKERELVAGISWSGGSTYYADSVMGRFTISRDNAKNTVYLQMNSLKPEDTAVDYCAADYYAHQDYRFDYWGQGTQVTVSS | low polyreactivity
39 | QVQLVESGGGLVQAGGSLRLSCAASGSNYRFYAMGWYRQAPGKERELVATISSSGGTTYYADSVKVRITISRDNAKNNVFLQMNSLKPEDTAVYYCAKDAFGWGRVYYYRSGYWGQGTQVTVSS | high polyreactivity
40 | QVQLVESGGGLVQAGGSLRLSCAASGSNYSSNAMGWYRQATGKERELVAAISRSGVTTYYADSVKGRFTISRDNAKNTVYLQMNSLKPEDSAVYYCAAQPYSRLYGRYLGFQYKYDYWGQGTQLTVSS | low polyreactivity
41 | QVQLVESGGGLVQAGGSLRLSCAASGSPFPYVMVWYRQAPGKERELVAAISQRTGSTYYADSVKGRFTISRDNAKNTVYLQMNSLKPEDTAVYYCAKPGYLRPSRYDYWGQGTQVTVSS | high polyreactivity
42 | QVQLVESGGGLVQAGGSLRLSCAASGSPFRGYAMGWYRLAPGKEREFVAAISRRGGTTYYADSVKARFTISRDNAKNTGYLQMNSLKPEDTAVYYCNKVYYQHYLPVDYWGQGTQVTVSS | high polyreactivity
43 | QVQLVESGGGLVQAGGSLRLSCAASGSSFFSNAMGWYRQAPGKERELVASIRSGTRTNYADSVKGRFTISRDNAKNTVYLLMNILKPADTAVYYCAKKWGLDKHRIGHRRLDYWGQGTQVTVSS | low polyreactivity
